Test results published in patent US20190336574A1 (TRUSTEES OF PRINCETON UNIVERSITY, published 2019).
Where no end group is shown, it is not given here.

T1: His-SND1 (16-339), SN1/2 domains, wild type (human, UniProt Q7KZF4 16-339)
T1 construct: also called His6-SND1 harboring the SN1/2 domains; not shown: N-terminal His tag (His6, His8 or His) with TEV site, pQlink vector
T1 sequence: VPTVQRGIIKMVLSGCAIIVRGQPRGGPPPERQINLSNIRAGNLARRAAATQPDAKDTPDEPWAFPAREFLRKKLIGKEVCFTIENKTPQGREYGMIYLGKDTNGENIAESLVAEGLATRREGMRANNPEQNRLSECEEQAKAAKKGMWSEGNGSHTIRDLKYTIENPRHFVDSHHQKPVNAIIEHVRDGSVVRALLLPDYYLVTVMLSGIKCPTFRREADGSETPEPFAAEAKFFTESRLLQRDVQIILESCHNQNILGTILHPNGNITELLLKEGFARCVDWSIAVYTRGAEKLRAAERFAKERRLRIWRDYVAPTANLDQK

T2: HA-SND1, full-length human, wild type (human, UniProt Q7KZF4 1-910)
T2 construct: Full-length, HA-tagged; Expressed in HEK293T cells, tested in lysate; also called HA-tagged SND1; WT HA-SND1
T2 sequence: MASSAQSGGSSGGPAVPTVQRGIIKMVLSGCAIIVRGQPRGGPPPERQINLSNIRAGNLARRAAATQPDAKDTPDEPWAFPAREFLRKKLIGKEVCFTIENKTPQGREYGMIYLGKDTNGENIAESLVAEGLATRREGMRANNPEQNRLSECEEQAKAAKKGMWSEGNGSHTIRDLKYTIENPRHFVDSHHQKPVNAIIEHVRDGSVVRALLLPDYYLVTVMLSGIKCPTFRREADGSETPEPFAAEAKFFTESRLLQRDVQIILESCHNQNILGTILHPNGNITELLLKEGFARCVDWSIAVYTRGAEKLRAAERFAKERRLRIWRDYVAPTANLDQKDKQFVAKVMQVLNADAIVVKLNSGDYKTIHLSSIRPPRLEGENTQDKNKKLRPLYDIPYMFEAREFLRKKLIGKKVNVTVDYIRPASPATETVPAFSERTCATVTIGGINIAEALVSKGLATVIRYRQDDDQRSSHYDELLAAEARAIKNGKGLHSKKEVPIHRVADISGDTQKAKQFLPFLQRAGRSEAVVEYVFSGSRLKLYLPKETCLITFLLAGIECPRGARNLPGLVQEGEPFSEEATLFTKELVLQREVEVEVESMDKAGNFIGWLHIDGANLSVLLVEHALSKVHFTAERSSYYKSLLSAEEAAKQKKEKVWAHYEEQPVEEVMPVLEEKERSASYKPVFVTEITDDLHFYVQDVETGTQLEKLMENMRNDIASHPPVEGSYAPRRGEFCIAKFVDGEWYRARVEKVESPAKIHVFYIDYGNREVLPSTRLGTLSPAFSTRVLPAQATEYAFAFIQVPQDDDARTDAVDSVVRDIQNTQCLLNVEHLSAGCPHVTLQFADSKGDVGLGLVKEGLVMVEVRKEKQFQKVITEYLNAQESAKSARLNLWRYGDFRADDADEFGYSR

B1: GST-MTDH (386-407), wild type (other)
chain: SSADPNSDWNAPAEEWGNWVDE
modifications: not fully specified (N-terminus)
notes: not shown: N-terminal GST tag with TEV site, pQlink vector
B2: GST-MTDH (364-582) N403A (other)
chain: YQWDVSRNQPYIDDEWSGLNGLSSADPNSDWNAPAEEWGAWVDEERASLLKSQEPIPDDQKVSDDDKEKGEGALPTGKSKKKKKKKKKQGEDNSTAQDTEELEKEIREDLPVNTSKTRPKQEKAFSLKTISTSDPAEVLVKNSQPIKTLPPATSTEPSVILSKSDSDKSSSQVPPILQETDKSKSNTKQNSVPPSQTKSETSWESPKQIKKKKKARRET
notes: as for B1
B3: GST-MTDH (364-582) W401D (other)
chain: YQWDVSRNQPYIDDEWSGLNGLSSADPNSDWNAPAEEDGNWVDEERASLLKSQEPIPDDQKVSDDDKEKGEGALPTGKSKKKKKKKKKQGEDNSTAQDTEELEKEIREDLPVNTSKTRPKQEKAFSLKTISTSDPAEVLVKNSQPIKTLPPATSTEPSVILSKSDSDKSSSQVPPILQETDKSKSNTKQNSVPPSQTKSETSWESPKQIKKKKKARRET
notes: as for B1
B4: Myc-MTDH D393R, full-length human (other)
chain: MAARSWQDELAQQAEEGSARLREMLSVGLGFLRTELGLDLGLEPKRYPGWVILVGTGALGLLLLFLLGYGWAAACAGSRKKRRSPPRKREEAAAVPAAAPDDLALLKNLRSEEQKKKNRKKLSEKPKPNGRTVEVAEGEAVRTPQSVTAKQPPEIDKKNEKSKKNKKKSKSDAKAVQNSSRHDGKEVDEGAWETKISHREKRQQRKRDKVLTDSGSLDSTIPGIENTITVTTEQLTTASFPVGSKKNKGDSHLNVQVSNFKSGKGDSTLQVSSGLNENLTVNGGGWNEKSVKLSSQISAGEEKWNSVSPASAGKRKAEPSAWSQDTGDANTNGKDWGRSWSDRSIFSGIGSTAEPVSQSTTSDYQWDVSRNQPYIDDEWSGLNGLSSADPNSRWNAPAEEWGNWVDEERASLLKSQEPIPDDQKVSDDDKEKGEGALPTGKSKKKKKKKKKQGEDNSTAQDTEELEKEIREDLPVNTSKTRPKQEKAFSLKTISTSDPAEVLVKNSQPIKTLPPATSTEPSVILSKSDSDKSSSQVPPILQETDKSKSNTKQNSVPPSQTKSETSWESPKQIKKKKKARRET
notes: Full-length, Myc-tagged; also called SPM12
B5: Myc-MTDH D406R, full-length human (other)
chain: MAARSWQDELAQQAEEGSARLREMLSVGLGFLRTELGLDLGLEPKRYPGWVILVGTGALGLLLLFLLGYGWAAACAGSRKKRRSPPRKREEAAAVPAAAPDDLALLKNLRSEEQKKKNRKKLSEKPKPNGRTVEVAEGEAVRTPQSVTAKQPPEIDKKNEKSKKNKKKSKSDAKAVQNSSRHDGKEVDEGAWETKISHREKRQQRKRDKVLTDSGSLDSTIPGIENTITVTTEQLTTASFPVGSKKNKGDSHLNVQVSNFKSGKGDSTLQVSSGLNENLTVNGGGWNEKSVKLSSQISAGEEKWNSVSPASAGKRKAEPSAWSQDTGDANTNGKDWGRSWSDRSIFSGIGSTAEPVSQSTTSDYQWDVSRNQPYIDDEWSGLNGLSSADPNSDWNAPAEEWGNWVREERASLLKSQEPIPDDQKVSDDDKEKGEGALPTGKSKKKKKKKKKQGEDNSTAQDTEELEKEIREDLPVNTSKTRPKQEKAFSLKTISTSDPAEVLVKNSQPIKTLPPATSTEPSVILSKSDSDKSSSQVPPILQETDKSKSNTKQNSVPPSQTKSETSWESPKQIKKKKKARRET
notes: Full-length, Myc-tagged; also called SPM32
B6: Myc-MTDH E407R, full-length human (other)
chain: MAARSWQDELAQQAEEGSARLREMLSVGLGFLRTELGLDLGLEPKRYPGWVILVGTGALGLLLLFLLGYGWAAACAGSRKKRRSPPRKREEAAAVPAAAPDDLALLKNLRSEEQKKKNRKKLSEKPKPNGRTVEVAEGEAVRTPQSVTAKQPPEIDKKNEKSKKNKKKSKSDAKAVQNSSRHDGKEVDEGAWETKISHREKRQQRKRDKVLTDSGSLDSTIPGIENTITVTTEQLTTASFPVGSKKNKGDSHLNVQVSNFKSGKGDSTLQVSSGLNENLTVNGGGWNEKSVKLSSQISAGEEKWNSVSPASAGKRKAEPSAWSQDTGDANTNGKDWGRSWSDRSIFSGIGSTAEPVSQSTTSDYQWDVSRNQPYIDDEWSGLNGLSSADPNSDWNAPAEEWGNWVDRERASLLKSQEPIPDDQKVSDDDKEKGEGALPTGKSKKKKKKKKKQGEDNSTAQDTEELEKEIREDLPVNTSKTRPKQEKAFSLKTISTSDPAEVLVKNSQPIKTLPPATSTEPSVILSKSDSDKSSSQVPPILQETDKSKSNTKQNSVPPSQTKSETSWESPKQIKKKKKARRET
notes: Full-length, Myc-tagged; also called SPM33
B7: Myc-MTDH W404D, full-length human (other)
chain: MAARSWQDELAQQAEEGSARLREMLSVGLGFLRTELGLDLGLEPKRYPGWVILVGTGALGLLLLFLLGYGWAAACAGSRKKRRSPPRKREEAAAVPAAAPDDLALLKNLRSEEQKKKNRKKLSEKPKPNGRTVEVAEGEAVRTPQSVTAKQPPEIDKKNEKSKKNKKKSKSDAKAVQNSSRHDGKEVDEGAWETKISHREKRQQRKRDKVLTDSGSLDSTIPGIENTITVTTEQLTTASFPVGSKKNKGDSHLNVQVSNFKSGKGDSTLQVSSGLNENLTVNGGGWNEKSVKLSSQISAGEEKWNSVSPASAGKRKAEPSAWSQDTGDANTNGKDWGRSWSDRSIFSGIGSTAEPVSQSTTSDYQWDVSRNQPYIDDEWSGLNGLSSADPNSDWNAPAEEWGNDVDEERASLLKSQEPIPDDQKVSDDDKEKGEGALPTGKSKKKKKKKKKQGEDNSTAQDTEELEKEIREDLPVNTSKTRPKQEKAFSLKTISTSDPAEVLVKNSQPIKTLPPATSTEPSVILSKSDSDKSSSQVPPILQETDKSKSNTKQNSVPPSQTKSETSWESPKQIKKKKKARRET
notes: Full-length, Myc-tagged; also called SPM31

What follows are binders tested against T1, His-SND1 (16-339), SN1/2 domains, wild … (assay: GST titration pull-down: GST-MTDH (386-407) on glutathione resin, SND1 (SN1/2) at 10, 3, 1, 0.5, 0.25, 0.12 (the sheet prints mM, paragraph 254 says µM), SDS-PAGE, Coomassie blue).
With B1 the “Estimated Binding Affinity” value was ~1.2 µM.
SSADPNSDWNDPAEEWGNWVDE (other, member of the group m64) [A396D] was tested, and the “Estimated Binding Affinity” value was ~1.5 µM.
In the case of SSADPNSDWNAPAEDWGLWVDE (other, member of the group m64) [E400D/N403L], the “Estimated Binding Affinity” value is reported as ~0.9 µM.
For SSADPNSDWKAPAEEWGNWVDE (other, member of the group m64) [N395K], the “Estimated Binding Affinity” value was ~0.8 µM.

What follows are binders tested against T1, His-SND1 (16-339), SN1/2 domains, wild … (assay: GST pull-down on glutathione resin, SDS-PAGE, Coomassie blue; normalised percentage of binding, mean±SEM of three experiments).
Excerpt: The proteins bound to GS4B were examined on SDS-PAGE and visualized by Coomassie blue staining. […] The bound proteins were examined as in (FIG. 22A). For both (FIG. 22A) and (FIG. 22B), experiments were repeated three times; representative results are shown. The normalized percentage of binding was averaged from three experiments; mean±SEM was shown below the data. (FIG. 22C) HEK293T cells were transfected with human HA-SND1, WT Myc-MTDH or Myc-MTDH with indicated single point mutation. Lysates were immunoprecipitated with anti-Myc antibody and immunoblotted with the indicated antibodies. (FIG. 22D) HEK293T cells were transfected with human Myc-MTDH, WT HA-SND1 or mutant HA-SND1 with indicated single point mutations or deletions. Lysates were immunoprecipitated with anti-Myc and immunoblotted with the indicated antibodies.
GST-Mediated Pull-Down Assay: ˜20 μg of GST-MTDH (different truncation forms and site mutants) was bound to 10 μl of glutathione resin via GST tag. The resin was washed with 200 μl assay buffer (25 mM Tris, PH8.0, 150 mM NaCl, 3 mM DTT) three times to remove the excess unbound protein. […] The mixture was washed with 200 μl assay buffer twice before examined by SDS-PAGE, and visualized by Coomassie blue staining. The experiments were repeated 3 times and the ratio of SND1 associated with GST-MTDH was analyzed by ImageJ.
Identification of MTDH and SND1 mutants deficient in binding: To gain insight into how the interface characterized above contributes to MTDH-SND1 interaction, structure-guided mutagenesis studies were performed.
B2 was tested, and the “% Maximum binding” value was 68%.
For B3, the “% Maximum binding” value was 46%.

These binders were tested against T2, HA-SND1, full-length human, wild type (assay: co-IP (anti-Myc) from HEK293T lysates, western blot).
B4: binds.
B5: binds.
B6: binds.
B7: binds.
